Biological target: THO complex (endogenous, purified via Sub2 and Hpr1-TS) (S. cerevisiae | S. cerevisiae (endogenous in yeast)) (UniProt P17629)
Assay: cryo-EM structure; single-particle cryo-EM of the benzonase-treated native eluate on 2-nm carbon-supported grids; Glacios 200 kV; heterogeneous and nonuniform refinement without imposed symmetry

stoichiometry N: 2
Substance: THO complex (endogenous, purified via Sub2 and Hpr1-TS) (from UniProt P17629 1-752; P53552 1-1597)

From PMC10393194
